From doi:10.1101/2022.12.06.519383

Target: ZIKV sE (strain PF13) (Zika virus, strain PF13)
Test: SEC-MALS

ZIKV sE (strain PF13) (domain or fragment)
stoichiometry N: 2
